# Literature values, collected in patent publication US11850285B2, “Insulin-responsive glucagon delivery patch” (North Carolina State University, priority 2017, dated 2023).
# Settings: in vivo
substance,measurement,value
Insulin glargine,duration,up to 24 hour
